Our source for the Kd values is publication PMC2917185.

Assay [1] has as its target T1, LHCP (light-harvesting chlorophyll a/b binding protein), fluorescein-labeled, P07371. Briefly: fluorescence polarisation. To be noted: remark: other sources report otherwise. (Polarisation of emitted light reports the rotation of a fluorescent probe.)
Assay [2] concerns the target T1, LHCP (light-harvesting chlorophyll a/b …). Description: fluorescence polarisation. The note with it: remark: other sources report otherwise. This is another data set of the same source.

B1: cpSRP43 (mature), O22265 57-373 (natural protein)
chain: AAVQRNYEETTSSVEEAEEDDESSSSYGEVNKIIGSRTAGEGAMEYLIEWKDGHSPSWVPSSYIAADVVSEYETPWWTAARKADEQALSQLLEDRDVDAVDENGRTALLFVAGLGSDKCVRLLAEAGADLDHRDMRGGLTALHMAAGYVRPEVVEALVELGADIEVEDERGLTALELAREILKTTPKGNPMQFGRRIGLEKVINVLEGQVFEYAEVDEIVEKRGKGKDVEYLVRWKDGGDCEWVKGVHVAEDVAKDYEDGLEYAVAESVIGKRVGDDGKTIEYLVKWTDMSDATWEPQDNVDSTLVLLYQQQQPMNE
What is called Kd is a measure of binding affinity in units of concentration. A high value points to weaker binding. For the molecule B1, the dissociation constant Kd in assay [1] is 138 nM; in assay [2] it was 296 nM.
